This is an account of results in US20190134143A1.

The target in the test is PDZ1/2 domain. Kind of test: SPR, Biacore 3000; PDZ1/2 amine-coupled to the chip, peptide as analyte, 1:1 binding model.
Sequence of PDZ1/2 domain (P78352 65-246): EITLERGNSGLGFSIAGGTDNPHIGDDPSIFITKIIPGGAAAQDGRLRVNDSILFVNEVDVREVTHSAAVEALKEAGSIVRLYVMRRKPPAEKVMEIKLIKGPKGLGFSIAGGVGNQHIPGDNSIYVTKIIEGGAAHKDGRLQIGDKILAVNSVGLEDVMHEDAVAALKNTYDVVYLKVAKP

B1: control chimeric peptide NA-1 (peptide)
peptide: YGRKKRRQRRRKLSSIESDV
modifications: not checked
A word on the Kd: it is the free concentration of one partner at which half of the binding sites on the other are occupied at equilibrium, for simple one-to-one binding. A lower Kd goes with higher affinity. Regarding B1, the Kd stood at 75.3 nM.
